US20250340636A1 (Memorial Sloan Kettering, published 2025)

Assays:
[1] = target: T1, soluble mouse L1CAM (monomer), His-tagged (mouse, UniProt P11627 20-1123, limits assumed); assay: BLI, mouse against human L1CAM-His
T1 construct: read as mouse
Experimental: (§1) Cross-reactivity to Mouse L1CAM. Affinity to mouse L1CAM was measured by BLI using an Octet Red96e instrument. […] The data was prepared by reference well subtraction, and response curves were globally fit to a 1:1 Langmuir binding model.

[2] = target: T2, extracellular domain of human L1CAM (isoform 1) fused to a poly-histidine tag via its carboxy terminus (human, UniProt P32004 20-1120); assay: BLI (Octet Red96e), His-tagged human L1CAM on Ni-NTA biosensors, mAb as analyte, 1:1 fit
T2 construct: Bought (Creative Biomart); also called L1CAM-His; huL1CAM protein
T2 sequence (P32004 20-1120): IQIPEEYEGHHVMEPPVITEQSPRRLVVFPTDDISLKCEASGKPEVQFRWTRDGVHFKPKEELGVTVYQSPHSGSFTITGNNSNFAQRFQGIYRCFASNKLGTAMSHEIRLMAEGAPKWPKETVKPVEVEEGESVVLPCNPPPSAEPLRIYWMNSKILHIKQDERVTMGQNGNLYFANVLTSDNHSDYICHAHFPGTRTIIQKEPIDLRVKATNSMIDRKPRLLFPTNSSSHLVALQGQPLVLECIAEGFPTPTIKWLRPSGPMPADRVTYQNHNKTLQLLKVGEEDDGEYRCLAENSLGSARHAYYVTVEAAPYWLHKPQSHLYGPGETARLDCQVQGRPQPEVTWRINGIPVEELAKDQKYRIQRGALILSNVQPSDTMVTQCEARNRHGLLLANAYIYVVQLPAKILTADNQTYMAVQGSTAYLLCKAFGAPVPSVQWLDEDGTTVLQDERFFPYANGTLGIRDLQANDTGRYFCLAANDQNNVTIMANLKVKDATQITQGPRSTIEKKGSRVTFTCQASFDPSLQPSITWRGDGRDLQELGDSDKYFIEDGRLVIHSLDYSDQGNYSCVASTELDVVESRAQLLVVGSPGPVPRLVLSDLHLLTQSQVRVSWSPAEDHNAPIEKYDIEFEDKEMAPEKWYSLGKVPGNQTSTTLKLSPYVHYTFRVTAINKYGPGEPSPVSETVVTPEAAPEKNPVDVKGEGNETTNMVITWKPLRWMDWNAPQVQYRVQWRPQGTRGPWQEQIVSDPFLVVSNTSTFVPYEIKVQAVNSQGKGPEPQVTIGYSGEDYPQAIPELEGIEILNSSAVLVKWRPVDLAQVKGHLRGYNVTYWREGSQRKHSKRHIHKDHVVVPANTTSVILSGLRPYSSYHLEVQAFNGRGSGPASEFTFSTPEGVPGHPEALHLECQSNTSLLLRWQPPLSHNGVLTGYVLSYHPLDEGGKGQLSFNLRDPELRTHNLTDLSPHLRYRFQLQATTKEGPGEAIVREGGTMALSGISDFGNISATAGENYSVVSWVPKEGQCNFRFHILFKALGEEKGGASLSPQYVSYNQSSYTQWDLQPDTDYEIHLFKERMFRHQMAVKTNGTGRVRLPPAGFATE
Experimental: Binding to L1CAM in Solution. Affinity to human L1CAM was measured by BLI using an Octet Red96e instrument. […] The data was prepared by reference well subtraction, and response curves were globally fit to a 1:1 Langmuir binding model.

[3] = target: T3, human CHL-1 (residues 25-1096 with a C-terminal 10xHis tag) (human, UniProt O00533 25-1096); assay: ELISA, plates coated with human CHL-1
T3 construct: range 25-1096; also called L1CAM-2; L1CAM2
T3 sequence: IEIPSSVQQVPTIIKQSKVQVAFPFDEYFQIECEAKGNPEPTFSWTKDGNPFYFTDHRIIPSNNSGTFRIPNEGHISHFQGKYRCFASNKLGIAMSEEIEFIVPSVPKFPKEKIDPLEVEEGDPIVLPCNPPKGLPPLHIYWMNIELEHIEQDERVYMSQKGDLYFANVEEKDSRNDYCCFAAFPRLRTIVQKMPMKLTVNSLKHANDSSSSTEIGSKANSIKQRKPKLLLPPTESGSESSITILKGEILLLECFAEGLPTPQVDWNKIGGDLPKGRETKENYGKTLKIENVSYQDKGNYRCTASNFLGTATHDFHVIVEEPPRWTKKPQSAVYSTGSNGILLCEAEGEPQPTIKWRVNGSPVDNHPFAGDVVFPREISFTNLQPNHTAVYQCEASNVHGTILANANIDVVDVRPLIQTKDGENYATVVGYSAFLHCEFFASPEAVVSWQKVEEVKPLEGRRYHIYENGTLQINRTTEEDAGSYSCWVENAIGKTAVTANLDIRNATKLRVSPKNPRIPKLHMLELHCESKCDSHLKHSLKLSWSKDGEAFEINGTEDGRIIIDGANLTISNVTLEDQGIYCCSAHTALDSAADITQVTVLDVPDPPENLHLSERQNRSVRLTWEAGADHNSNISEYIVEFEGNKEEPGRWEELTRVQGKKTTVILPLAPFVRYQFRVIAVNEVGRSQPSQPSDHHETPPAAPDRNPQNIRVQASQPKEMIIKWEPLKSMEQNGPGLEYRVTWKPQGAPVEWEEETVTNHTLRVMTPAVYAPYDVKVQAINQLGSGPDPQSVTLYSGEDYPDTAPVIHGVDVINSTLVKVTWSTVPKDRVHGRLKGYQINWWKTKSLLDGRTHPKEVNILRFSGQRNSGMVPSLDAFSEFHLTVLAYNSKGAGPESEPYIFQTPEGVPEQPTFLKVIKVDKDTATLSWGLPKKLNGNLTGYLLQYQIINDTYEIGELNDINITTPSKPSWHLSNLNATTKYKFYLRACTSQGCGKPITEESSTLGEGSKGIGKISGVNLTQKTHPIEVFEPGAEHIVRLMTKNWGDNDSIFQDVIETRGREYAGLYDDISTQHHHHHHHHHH
From the text: Selectivity. […] These proteins are other members of the L1 family of cell adhesion proteins and have between 49% and 55% sequence similarity with L1CAM in the extracellular portion. […] Positive control antibodies were included for each homolog. […] Epitope. The extracellular portion of L1CAM contains six immunoglobulin-like (Ig) domains and five fibronectin type III (FN) domains. To narrow down the binding region of the development candidate mAbs, truncated versions of human L1CAM protein (Ig domain, residues 21-605; FN domain, residues 606-1116; each with a C-terminal 6×His tag) were recombinantly produced, followed by a BLI experiment to test binding at 50 and 100 nM. […] 6×His tag is set forth in SEQ ID NO: 316.

[4] = target: T1, soluble mouse L1CAM (monomer), …; assay: BLI (Octet Red96e), His-tagged mouse L1CAM on Ni-NTA biosensors, mAb as analyte, 1:1 fit
Experimental: as §1

[5] = target: T1, soluble mouse L1CAM (monomer), …; assay: summary table; soluble mouse protein (row printed as 'mouse CD40 (monomer)', read as mouse L1CAM)
Experimental: as §1

[6] = target: T4, soluble cynomolgus monkey L1CAM, His-tagged, monomeric (cynomolgus monkey, UniProt A0A2K5URB5 20-1120); assay: BLI (Octet Red96e), His-tagged cynomolgus L1CAM on Ni-NTA biosensors, mAb as analyte, 1:1 fit
T4 construct: also called cyL1CAM protein; cynomolgus L1CAM-His
Experimental: Cross-reactivity to Cynomolgus Monkey L1CAM. Affinity to cynomolgus L1CAM was measured by BLI using an Octet Red96e instrument. […] The data was prepared by reference well subtraction, and response curves were globally fit to a 1:1 Langmuir binding model.

human L1CAM on cells [7] = target: T5, human L1CAM on cells (human, UniProt P32004 20-1257); assay: flow cytometry, MCF-7 cells, AlexaFluor 647 anti-human Fc secondary
T5 construct: Overexpressed on stably transfected HEK293T cells or endogenous on MCF-7 and MDA-MB-231 cells; also called HEK293T-hL1CAM
T5 sequence (P32004 20-1257): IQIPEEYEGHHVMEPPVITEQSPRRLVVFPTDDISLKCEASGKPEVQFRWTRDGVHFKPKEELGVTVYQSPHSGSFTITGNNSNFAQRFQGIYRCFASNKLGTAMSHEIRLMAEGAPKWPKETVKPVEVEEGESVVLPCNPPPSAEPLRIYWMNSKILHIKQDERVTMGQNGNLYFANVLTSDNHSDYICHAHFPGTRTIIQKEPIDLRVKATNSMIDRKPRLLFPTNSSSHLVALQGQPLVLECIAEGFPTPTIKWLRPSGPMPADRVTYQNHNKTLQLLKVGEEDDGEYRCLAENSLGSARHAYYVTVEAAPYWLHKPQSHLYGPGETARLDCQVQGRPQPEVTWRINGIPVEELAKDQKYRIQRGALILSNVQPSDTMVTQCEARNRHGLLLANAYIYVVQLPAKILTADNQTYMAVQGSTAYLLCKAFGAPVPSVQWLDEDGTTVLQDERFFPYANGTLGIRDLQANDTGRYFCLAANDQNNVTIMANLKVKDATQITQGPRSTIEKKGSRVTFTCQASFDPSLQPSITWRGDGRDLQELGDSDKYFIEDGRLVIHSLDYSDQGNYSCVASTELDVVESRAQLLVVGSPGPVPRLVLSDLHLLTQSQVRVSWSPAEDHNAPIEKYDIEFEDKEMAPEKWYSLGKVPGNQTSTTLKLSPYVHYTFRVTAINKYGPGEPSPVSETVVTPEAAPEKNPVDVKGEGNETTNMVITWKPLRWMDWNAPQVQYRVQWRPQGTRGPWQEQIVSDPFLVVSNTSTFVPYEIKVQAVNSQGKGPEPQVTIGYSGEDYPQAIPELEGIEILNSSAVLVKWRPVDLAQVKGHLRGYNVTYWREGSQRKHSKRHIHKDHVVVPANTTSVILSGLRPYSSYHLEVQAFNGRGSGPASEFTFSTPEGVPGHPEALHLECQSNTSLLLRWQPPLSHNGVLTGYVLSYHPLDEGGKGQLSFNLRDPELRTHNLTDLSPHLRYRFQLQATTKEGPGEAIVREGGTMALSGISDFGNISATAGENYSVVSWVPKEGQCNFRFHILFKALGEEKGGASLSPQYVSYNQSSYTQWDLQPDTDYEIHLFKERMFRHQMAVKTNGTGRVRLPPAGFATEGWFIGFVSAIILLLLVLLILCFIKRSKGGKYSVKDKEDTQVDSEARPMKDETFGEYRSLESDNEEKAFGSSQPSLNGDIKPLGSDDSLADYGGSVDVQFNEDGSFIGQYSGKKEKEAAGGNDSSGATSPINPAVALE
Experimental: (§2) Binding to L1CAM on Cells. […] Cells were then incubated with an AlexaFluor 647 goat anti-human Fc secondary antibody. After washing, the stained cells were analyzed by flow cytometry.
(§3) The binding curves for each antibody and cell line normalized to secondary antibody only staining (MFI ratio) are shown in FIGS. 14A-14C. EC50 values were determined by non-linear regression (Table 70). […] It is possible that differences in the conformation and oligomerization of L1CAM, depending on the surface expression level, contributed to the binding pattern. […] An avidity effect due to high levels of L1CAM surface expression may have contributed to the strong binding observed in this experiment.

human L1CAM on cells [8] = target: T5, human L1CAM on cells; assay: summary table; binding to cells overexpressing human L1CAM (HEK293T)
Experimental: as §2, §3

T1 sequence (P11627 20-1123 limits assumed): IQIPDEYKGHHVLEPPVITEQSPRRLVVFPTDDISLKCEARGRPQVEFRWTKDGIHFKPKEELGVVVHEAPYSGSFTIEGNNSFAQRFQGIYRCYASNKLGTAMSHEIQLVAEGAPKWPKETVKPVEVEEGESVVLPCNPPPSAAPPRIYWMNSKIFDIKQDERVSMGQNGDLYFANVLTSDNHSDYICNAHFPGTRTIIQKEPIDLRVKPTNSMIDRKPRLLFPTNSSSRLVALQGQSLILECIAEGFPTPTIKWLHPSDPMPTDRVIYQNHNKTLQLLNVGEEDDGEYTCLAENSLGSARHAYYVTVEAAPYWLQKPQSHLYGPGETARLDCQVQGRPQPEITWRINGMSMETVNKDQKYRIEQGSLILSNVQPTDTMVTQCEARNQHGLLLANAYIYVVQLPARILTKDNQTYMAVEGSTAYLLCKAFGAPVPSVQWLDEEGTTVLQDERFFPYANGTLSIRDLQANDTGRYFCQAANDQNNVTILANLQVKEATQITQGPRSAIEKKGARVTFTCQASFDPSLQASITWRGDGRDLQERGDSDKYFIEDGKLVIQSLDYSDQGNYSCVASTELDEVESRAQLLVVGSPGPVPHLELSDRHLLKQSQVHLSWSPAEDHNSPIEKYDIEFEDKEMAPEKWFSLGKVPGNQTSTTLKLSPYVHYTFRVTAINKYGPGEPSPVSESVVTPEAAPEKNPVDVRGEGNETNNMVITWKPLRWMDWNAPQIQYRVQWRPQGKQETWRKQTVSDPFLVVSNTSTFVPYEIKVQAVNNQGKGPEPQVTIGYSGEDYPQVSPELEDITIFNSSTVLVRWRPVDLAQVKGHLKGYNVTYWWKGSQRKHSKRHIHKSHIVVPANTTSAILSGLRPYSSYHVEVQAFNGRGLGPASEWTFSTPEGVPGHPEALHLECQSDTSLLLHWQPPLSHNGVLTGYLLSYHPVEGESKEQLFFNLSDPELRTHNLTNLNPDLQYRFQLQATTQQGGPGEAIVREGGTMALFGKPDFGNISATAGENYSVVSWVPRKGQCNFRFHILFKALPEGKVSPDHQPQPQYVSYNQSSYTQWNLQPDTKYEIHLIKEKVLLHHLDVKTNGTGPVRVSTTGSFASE

B1: TDI-Y-005 (antibody, human IgG1, kappa, V domains shown)
VH: EVQMVESGGGLVQPGGSLRLSCAAPGFIFSSYNMNWVRQAPGKGLEWVSYISSSSSTTYYADSVKGRFTISRDNAKNSLYLQMNSLRDEDTAVYYCASLYSGYDYYYYYGMDVWGQGTTVTVSS
VL: DIVMTQTPLSSPVSLGQPASISCRSSQSLVHSDGNTYLSWLQQRPGQPPRVLIYKISKRFSGVPDRFSGSGAGTDFTLKISRVEAEDVGVYYCMQATQFPFTFGPGTKVDIKR
notes: Human IgG1, kappa; also called human 14A10 mAb; fully human 14A10 mAb
fold difference of KD against human L1CAM [1]: ≤ 8 fold | Kd [2]: 4.3 nM | koff [2]: 0.00014 s⁻¹ | kon [2]: 33000 M⁻¹ s⁻¹ | binding result [3]: no binding (tested: 1 µM) | Kd [4]: 34 nM | koff [4]: 0.0011 s⁻¹ | kon [4]: 31000 M⁻¹ s⁻¹ | Kd [5]: 34 nM | koff [5]: 0.0011 s⁻¹ | kon [5]: 31000 M⁻¹ s⁻¹ | Kd [6]: 1.3 nM | koff [6]: 0.00012 s⁻¹ | kon [6]: 93000 M⁻¹ s⁻¹ | EC50 (human L1CAM on cells [7]): 2.5 nM | EC50 (human L1CAM on cells [8]): 2 nM
